The values that follow are results of earlier work, collected in article PMC5587394.

What is called Kd is the free concentration of one partner at which half of the binding sites on the other are occupied at equilibrium, for simple one-to-one binding.

The target in this data set is FGF20 (Homo sapiens) (UniProt Q9NP95).

Sequence of FGF20 (Q9NP95 whole entry): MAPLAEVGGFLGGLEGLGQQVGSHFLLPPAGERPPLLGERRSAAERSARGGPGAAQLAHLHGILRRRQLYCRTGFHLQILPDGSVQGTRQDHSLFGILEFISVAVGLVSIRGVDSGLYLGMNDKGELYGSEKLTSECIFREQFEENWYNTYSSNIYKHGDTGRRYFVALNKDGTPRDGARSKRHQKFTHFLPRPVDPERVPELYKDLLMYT

FGF20 (from UniProt Q9NP95): the dissociation constant (Kd) was 100 nM.
